Measured values taken from publication PMC9482650, “Quantitative fragmentomics allow affinity mapping of interactomes” (Nature Communications, 2022).

T1: CNKSR1, Q969H4
T1 sequence (Q969H4 191-295, limits assumed, looked up): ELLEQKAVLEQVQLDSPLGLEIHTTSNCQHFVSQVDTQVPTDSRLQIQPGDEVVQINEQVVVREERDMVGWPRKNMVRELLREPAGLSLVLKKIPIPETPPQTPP

T2: GRIP1_2, Q9Y3R0
T2 sequence (Q9Y3R0 145-248, limits assumed, looked up): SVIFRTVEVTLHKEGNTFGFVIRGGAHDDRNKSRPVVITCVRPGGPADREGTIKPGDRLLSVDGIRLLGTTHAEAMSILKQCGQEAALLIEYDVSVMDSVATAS

T3: MPDZ_2, O75970
T3 sequence (O75970 252-347, limits assumed, looked up): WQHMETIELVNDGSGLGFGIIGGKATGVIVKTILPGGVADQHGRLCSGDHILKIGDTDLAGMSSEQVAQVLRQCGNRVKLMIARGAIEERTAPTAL

T4: NHERF3_2, Q5T2W1
T4 sequence (Q5T2W1 129-225, limits assumed, looked up): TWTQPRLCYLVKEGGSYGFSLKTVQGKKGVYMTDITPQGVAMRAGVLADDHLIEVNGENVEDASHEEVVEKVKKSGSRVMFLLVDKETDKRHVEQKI

T5: PDZD2_1, O15018
T5 sequence (O15018 80-192, limits assumed, looked up): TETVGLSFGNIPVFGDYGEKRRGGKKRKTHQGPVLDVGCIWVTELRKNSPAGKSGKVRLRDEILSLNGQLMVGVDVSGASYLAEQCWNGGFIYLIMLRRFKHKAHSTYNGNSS

T6: PDZD2_5, O15018
T6 sequence (O15018 2617-2716, limits assumed, looked up): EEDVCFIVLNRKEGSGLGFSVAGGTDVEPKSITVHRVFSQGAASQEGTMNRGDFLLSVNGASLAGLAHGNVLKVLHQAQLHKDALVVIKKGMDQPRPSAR

T7: PDZRN3_2, Q9UPQ7
T7 sequence (Q9UPQ7 414-513, limits assumed, looked up): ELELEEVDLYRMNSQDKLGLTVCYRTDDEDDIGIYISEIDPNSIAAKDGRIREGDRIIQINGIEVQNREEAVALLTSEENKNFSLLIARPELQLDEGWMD

T8: SHANK3, Q9BYB0
T8 sequence (Q9BYB0 641-750, limits assumed, looked up): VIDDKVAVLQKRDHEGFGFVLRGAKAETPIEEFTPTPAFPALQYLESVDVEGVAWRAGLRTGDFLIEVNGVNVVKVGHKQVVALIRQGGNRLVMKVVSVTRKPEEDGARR

T9: SHROOM4, Q9ULL8
T9 sequence (Q9ULL8 5-102, limits assumed, looked up): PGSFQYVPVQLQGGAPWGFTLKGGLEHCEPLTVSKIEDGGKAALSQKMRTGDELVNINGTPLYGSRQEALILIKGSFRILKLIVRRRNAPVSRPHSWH

T10: TJP3_1, O95049
T10 sequence (O95049 6-103, limits assumed, looked up): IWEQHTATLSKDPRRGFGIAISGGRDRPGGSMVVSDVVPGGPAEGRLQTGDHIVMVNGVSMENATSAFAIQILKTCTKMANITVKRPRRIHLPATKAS

T11: USH1C_1, Q9Y6N9
T11 sequence (Q9Y6N9 82-179, limits assumed, looked up): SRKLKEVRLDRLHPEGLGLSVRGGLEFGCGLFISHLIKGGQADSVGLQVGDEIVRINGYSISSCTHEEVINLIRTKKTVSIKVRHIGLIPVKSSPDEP

T12: USH1C_3, Q9Y6N9
T12 sequence (Q9Y6N9 447-547, limits assumed, looked up): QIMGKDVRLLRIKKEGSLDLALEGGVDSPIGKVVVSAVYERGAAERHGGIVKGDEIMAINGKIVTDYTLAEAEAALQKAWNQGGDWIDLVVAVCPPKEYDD


Legend:
Assay in all cases: holdup assay
Parameters in all cases: key: below the threshold = too weak to quantify, mostly under pKd 3.1 to 4
Conditions in all cases: plain residues with an end cap or a label only (N-terminal biotin on a linker: ttds)
[1] = molecular target: CARD14, Q9BXL6
[2] = molecular target: T1, CNKSR1, Q969H4
[3] = molecular target: FRMPD4, Q14CM0
[4] = molecular target: GIPC3, Q8TF64
[5] = molecular target: T2, GRIP1_2, Q9Y3R0
[6] = molecular target: GRIP2_2, Q9C0E4
[7] = molecular target: IL16_2, Q14005
[8] = molecular target: LMO7, Q8WWI1
[9] = molecular target: MAGI1_3, Q96QZ7
[10] = molecular target: MAGI1_4, Q96QZ7
[11] = molecular target: MAGI1_5, Q96QZ7
[12] = molecular target: T3, MPDZ_2, O75970
[13] = molecular target: T4, NHERF3_2, Q5T2W1
[14] = molecular target: NHERF4_3, Q86UT5
[15] = molecular target: T5, PDZD2_1, O15018
[16] = molecular target: T6, PDZD2_5, O15018
[17] = molecular target: T7, PDZRN3_2, Q9UPQ7
[18] = molecular target: SCRIB_3, Q14160
[19] = molecular target: SCRIB_4, Q14160
[20] = molecular target: T8, SHANK3, Q9BYB0
[21] = molecular target: T9, SHROOM4, Q9ULL8
[22] = molecular target: T10, TJP3_1, O95049
[23] = molecular target: T11, USH1C_1, Q9Y6N9
[24] = molecular target: T12, USH1C_3, Q9Y6N9

Sequence of IL16_2, Q14005 (Q14005 350-450): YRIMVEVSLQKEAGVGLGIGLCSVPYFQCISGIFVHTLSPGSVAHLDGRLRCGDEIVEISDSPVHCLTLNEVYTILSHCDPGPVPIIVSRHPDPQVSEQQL
Sequence of MAGI1_5, Q96QZ7 (Q96QZ7 986-1098): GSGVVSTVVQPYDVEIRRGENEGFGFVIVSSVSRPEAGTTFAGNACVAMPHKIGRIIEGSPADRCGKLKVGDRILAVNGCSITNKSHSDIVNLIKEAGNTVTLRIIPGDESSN
Sequence of FRMPD4, Q14CM0 (Q14CM0 67-160): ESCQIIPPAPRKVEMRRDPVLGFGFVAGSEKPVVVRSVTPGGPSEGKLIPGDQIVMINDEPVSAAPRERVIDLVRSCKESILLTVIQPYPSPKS
Sequence of MAGI1_3, Q96QZ7 (Q96QZ7 638-725): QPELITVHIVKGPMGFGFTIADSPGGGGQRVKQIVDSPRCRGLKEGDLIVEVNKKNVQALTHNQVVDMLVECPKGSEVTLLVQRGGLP
Sequence of SCRIB_4, Q14160 (Q14160 1095-1204): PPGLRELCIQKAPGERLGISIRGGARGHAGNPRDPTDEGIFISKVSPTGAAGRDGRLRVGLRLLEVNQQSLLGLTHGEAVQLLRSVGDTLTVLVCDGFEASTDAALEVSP
Sequence of GRIP2_2, Q9C0E4 (Q9C0E4 137-245): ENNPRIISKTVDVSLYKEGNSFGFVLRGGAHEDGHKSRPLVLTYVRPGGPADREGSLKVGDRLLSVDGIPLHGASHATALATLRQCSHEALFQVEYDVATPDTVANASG
Sequence of GIPC3, Q8TF64 (Q8TF64 107-202): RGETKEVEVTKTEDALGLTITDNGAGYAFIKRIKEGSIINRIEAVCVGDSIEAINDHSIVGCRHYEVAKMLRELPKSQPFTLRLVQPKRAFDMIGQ
Sequence of LMO7, Q8WWI1 (Q8WWI1 1037-1138): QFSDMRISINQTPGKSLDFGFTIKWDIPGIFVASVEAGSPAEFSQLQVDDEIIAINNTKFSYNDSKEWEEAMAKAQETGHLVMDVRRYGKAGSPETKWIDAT
Sequence of NHERF4_3, Q86UT5 (Q86UT5 325-412): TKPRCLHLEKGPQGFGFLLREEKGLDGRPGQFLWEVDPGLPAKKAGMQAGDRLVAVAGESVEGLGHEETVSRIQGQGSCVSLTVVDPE
Sequence of SCRIB_3, Q14160 (Q14160 999-1103): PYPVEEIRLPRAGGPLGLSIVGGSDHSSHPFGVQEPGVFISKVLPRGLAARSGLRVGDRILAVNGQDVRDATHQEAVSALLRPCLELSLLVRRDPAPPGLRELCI
Sequence of CARD14, Q9BXL6 (Q9BXL6 558-663): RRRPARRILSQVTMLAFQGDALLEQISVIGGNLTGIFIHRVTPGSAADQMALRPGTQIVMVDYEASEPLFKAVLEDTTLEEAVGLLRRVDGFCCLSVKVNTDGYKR
Sequence of MAGI1_4, Q96QZ7 (Q96QZ7 other isoform, or with tags, fused parts or gaps): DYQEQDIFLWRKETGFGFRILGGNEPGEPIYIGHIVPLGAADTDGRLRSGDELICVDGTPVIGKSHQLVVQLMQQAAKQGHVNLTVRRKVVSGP

Binder	pKd [1]	pKd [2]	pKd [3]	pKd [4]	pKd [5]	pKd [6]	pKd [7]	pKd [8]	pKd [9]	pKd [10]	pKd [11]	pKd [12]	pKd [13]	pKd [14]	pKd [15]	pKd [16]	pKd [17]	pKd [18]	pKd [19]	pKd [20]	further results
SSIDLWETAL [SLC15A5, A6NIM6]	below the threshold	below the threshold	5.35	below the threshold	below the threshold	below the threshold	below the threshold	below the threshold	below the threshold	below the threshold	5.82	below the threshold	below the threshold	below the threshold	below the threshold	below the threshold	below the threshold	5.71	4.97	6.63	pKd [21]: below the threshold; pKd [22]: below the threshold; pKd [23]: 4.64; pKd [24]: below the threshold
PSRDRKETSI [RALBP1, Q15311]	below the threshold	below the threshold	below the threshold	below the threshold	3.45	4.25	below the threshold	below the threshold	below the threshold	below the threshold	below the threshold	below the threshold	below the threshold	below the threshold	below the threshold	below the threshold	below the threshold	4.97	below the threshold	below the threshold	pKd [21]: below the threshold; pKd [22]: below the threshold; pKd [23]: below the threshold; pKd [24]: below the threshold
PPRQRSETQV [HPV82-E6, Q9IR59]	below the threshold	below the threshold	below the threshold	below the threshold	below the threshold	below the threshold	below the threshold	below the threshold	4.28	4.2	4.37	below the threshold	below the threshold	below the threshold	below the threshold	below the threshold	below the threshold	4.05	below the threshold	below the threshold	pKd [21]: below the threshold; pKd [22]: below the threshold; pKd [23]: below the threshold; pKd [24]: below the threshold
SHSSKGETAV [FZD7, O75084]	below the threshold	below the threshold	3.52	below the threshold	below the threshold	4.49	below the threshold	below the threshold	below the threshold	below the threshold	below the threshold	below the threshold	below the threshold	below the threshold	below the threshold	below the threshold	below the threshold	4.78	below the threshold	below the threshold	pKd [21]: below the threshold; pKd [22]: below the threshold; pKd [23]: below the threshold; pKd [24]: below the threshold
SRSRRRETAL [HPV33-E6, P06427]	below the threshold	below the threshold	3.87	below the threshold	below the threshold	below the threshold	below the threshold	below the threshold	below the threshold	below the threshold	below the threshold	below the threshold	below the threshold	below the threshold	below the threshold	below the threshold	below the threshold	5.3	4.24	below the threshold	pKd [21]: below the threshold; pKd [22]: below the threshold; pKd [23]: below the threshold; pKd [24]: below the threshold
KLVIKTETTV [RASSF6, Q6ZTQ3]	below the threshold	below the threshold	below the threshold	below the threshold	below the threshold	below the threshold	4.38	below the threshold	4.32	below the threshold	4.23	below the threshold	below the threshold	below the threshold	below the threshold	below the threshold	below the threshold	4.3	below the threshold	below the threshold	pKd [21]: below the threshold; pKd [22]: below the threshold; pKd [23]: below the threshold; pKd [24]: below the threshold
